Assay results taken from publication PMC3519786, “Novel Interactions between FOXM1 and CDC25A Regulate the Cell Cycle” (PLoS ONE, 2012).

Biological target: T1, GAL4-FOXM1 C-terminal fragment (amino acids 330-763) (human, UniProt Q08050-1 330-763)
T1 construct: FOXM1, human, C-terminal fragment, amino acids 330-763; from pCMV-XL5-FOXM1B (Origene); also called C-terminal FOXM1; C-terminus of FOXM1; source: mammalian two-hybrid fusion, U2OS, transfected
T1 sequence (looked up): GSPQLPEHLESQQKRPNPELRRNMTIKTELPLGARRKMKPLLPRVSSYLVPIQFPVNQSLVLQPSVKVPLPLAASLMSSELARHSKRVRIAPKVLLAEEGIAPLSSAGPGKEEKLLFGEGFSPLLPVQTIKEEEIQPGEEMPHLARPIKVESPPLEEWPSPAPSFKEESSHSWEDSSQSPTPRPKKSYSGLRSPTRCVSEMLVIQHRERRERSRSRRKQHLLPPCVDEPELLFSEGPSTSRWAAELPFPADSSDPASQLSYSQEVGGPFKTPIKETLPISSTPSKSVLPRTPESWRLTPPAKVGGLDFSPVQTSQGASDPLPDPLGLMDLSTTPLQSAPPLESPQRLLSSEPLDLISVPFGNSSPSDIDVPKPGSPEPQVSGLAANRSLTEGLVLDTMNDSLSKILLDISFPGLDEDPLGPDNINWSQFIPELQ
Test: two-hybrid; mammalian two-hybrid (Checkmate, Promega) in U2OS; bait pBIND (GAL4 DNA-binding domain)-FOXM1, prey pACT (VP16 activation domain)-CDC25A, reporter pG5-luc; firefly normalised to Renilla luciferase; 2 days
Details: partners not purified

B1: VP16-CDC25A (natural protein, UniProt P30304 1-524, looked up)
chain: MELGPEPPHRRRLLFACSPPPASQPVVKALFGASAAGGLSPVTNLTVTMDQLQGLGSDYEQPLEVKNNSNLQRMGSSESTDSGFCLDSPGPLDSKENLENPMRRIHSLPQKLLGCSPALKRSHSDSLDHDIFQLIDPDENKENEAFEFKKPVRPVSRGCLHSHGLQEGKDLFTQRQNSAPARMLSSNERDSSEPGNFIPLFTPQSPVTATLSDEDDGFVDLLDGENLKNEEETPSCMASLWTAPLVMRTTNLDNRCKLFDSPSLCSSSTRSVLKRPERSQEESPPGSTKRRKSMSGASPKESTNPEKAHETLHQSLSLASSPKGTIENILDNDPRDLIGDFSKGYLFHTVAGKHQDLKYISPEIMASVLNGKFANLIKEFVIIDCRYPYEYEGGHIKGAVNLHMEEEVEDFLLKKPIVPTDGKRVIVVFHCEFSSERGPRMCRYVRERDRLGNEYPKLHYPELYVLKGGYKEFFMKCQSYCEPPSYRPMHHEDFKEDLKKFRTKSRTWAGEKSKREMYSRLKKL
notes: CDC25A (cell division cycle 25A) dual phosphatase; plasmid bought from Origene; also called pACT-CDC25A; wild-type CDC25A; source: mammalian two-hybrid fusion, U2OS, transfected
- fold above background (normalised luciferase activity): > 60000 fold
